According to patent US20230192842A1 (published 2023):

What was measured:
Assay in all cases: flow cytometry, % 906-mAb-PE positive of live cells
[1] = biological target: human CLDN3 Q43A mutant on RKO KO cells (human) (UniProt O15551)
[2] = biological target: human CLDN3 P149A mutant on RKO KO cells (human) (UniProt O15551)
[3] = biological target: human CLDN3 Q155A mutant on RKO KO cells (human) (UniProt O15551)
[4] = biological target: human CLDN3 R157A mutant on RKO KO cells (human) (UniProt O15551)
Sequence of human CLDN3 R157A mutant on RKO KO cells (human) (O15551 whole entry R157A): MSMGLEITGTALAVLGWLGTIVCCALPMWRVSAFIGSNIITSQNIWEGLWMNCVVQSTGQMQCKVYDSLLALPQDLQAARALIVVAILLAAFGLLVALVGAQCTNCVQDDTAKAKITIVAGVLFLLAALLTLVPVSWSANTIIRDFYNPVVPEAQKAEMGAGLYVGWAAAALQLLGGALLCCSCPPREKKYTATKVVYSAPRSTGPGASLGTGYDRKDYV

[5] = biological target: human CLDN3 F34A mutant on RKO KO cells (human) (UniProt O15551)
Sequence of human CLDN3 F34A mutant on RKO KO cells (human) (O15551 whole entry F34A): as the sequence (O15551 whole entry R157A) above, with F34A, A157R counted along it

[6] = biological target: human CLDN3 P152A mutant on RKO KO cells (human) (UniProt O15551)
Sequence of human CLDN3 P152A mutant on RKO KO cells (human) (O15551 whole entry P152A): as the sequence (O15551 whole entry R157A) above, with P152A, A157R counted along it

[7] = biological target: human CLDN3 V150A mutant on RKO KO cells (human) (UniProt O15551)
Sequence of human CLDN3 V150A mutant on RKO KO cells (human) (O15551 whole entry V150A): as the sequence (O15551 whole entry R157A) above, with V150A, A157R counted along it

[8] = biological target: human CLDN3 K156A mutant on RKO KO cells (human) (UniProt O15551)
Sequence of human CLDN3 K156A mutant on RKO KO cells (human) (O15551 whole entry K156A): as the sequence (O15551 whole entry R157A) above, with K156A, A157R counted along it

[9] = biological target: human CLDN3 I39A mutant on RKO KO cells (human) (UniProt O15551)
Sequence of human CLDN3 I39A mutant on RKO KO cells (human) (O15551 whole entry I39A): as the sequence (O15551 whole entry R157A) above, with I39A, A157R counted along it

[10] = biological target: human CLDN3 I45A mutant on RKO KO cells (human) (UniProt O15551)
Sequence of human CLDN3 I45A mutant on RKO KO cells (human) (O15551 whole entry I45A): as the sequence (O15551 whole entry R157A) above, with I45A, A157R counted along it

[11] = biological target: human CLDN3 N148A mutant on RKO KO cells (human) (UniProt O15551)
Sequence of human CLDN3 N148A mutant on RKO KO cells (human) (O15551 whole entry N148A): as the sequence (O15551 whole entry R157A) above, with N148A, A157R counted along it

Sequence of human CLDN3 P149A mutant on RKO KO cells (human) (O15551 whole entry P149A): as the sequence (O15551 whole entry R157A) above, with P149A, A157R counted along it
Sequence of human CLDN3 Q155A mutant on RKO KO cells (human) (O15551 whole entry Q155A): as the sequence (O15551 whole entry R157A) above, with Q155A, A157R counted along it
Sequence of human CLDN3 Q43A mutant on RKO KO cells (human) (O15551 whole entry Q43A): as the sequence (O15551 whole entry R157A) above, with Q43A, A157R counted along it

B1: 906-mAb (anti-CLDN3 906-mAb, monoclonal antibody version of the scFv of 906-009_LNGFR) (antibody, V domains shown)
VH: QVQLVQSGAEVKKPGSSVKVSCKASGYTFTNYWVHWVRQAPGQGLEWMGRIEPNSSGSQYNEKFKNRVTITADKSTSTAYMELSSLRSEDTAVYYCARGVMVPLDYWGQGTLVTVSS
VL: DIQMTQSPSSLSASVGDRVTITCKASQDINRYIAWYQQKPGKAPKLLIHYTSTLQPGVPSRFSGSGSGTDFTLTISSLQPEDFATYYCLQYETLYSFGQGTKLEIK
B1 showed a Change in % Parent (906-mAb-PE positive cells) vs CLDN3 WT [1] of 0.1%, a Change in % Parent (906-mAb-PE positive cells) vs CLDN3 WT [2] of 0.1% and a Change in % Parent (906-mAb-PE positive cells) vs CLDN3 WT [3] of 0.1%. For the same binder, the Change in % Parent (906-mAb-PE positive cells) vs CLDN3 WT [4] was 0.1%, the Change in % Parent (906-mAb-PE positive cells) vs CLDN3 WT [5] was -0.95% and the Change in % Parent (906-mAb-PE positive cells) vs CLDN3 WT [6] was 0.1%. For the same binder, the Change in % Parent (906-mAb-PE positive cells) vs CLDN3 WT [7] was 0%, the Change in % Parent (906-mAb-PE positive cells) vs CLDN3 WT [8] was 0.05% and the Change in % Parent (906-mAb-PE positive cells) vs CLDN3 WT [9] was 0.1%. It also gave a Change in % Parent (906-mAb-PE positive cells) vs CLDN3 WT [10] of 0.05% and a Change in % Parent (906-mAb-PE positive cells) vs CLDN3 WT [11] of 0.1%.
